The record followed here is patent US20240158459A1 (KYVERNA THERAPEUTICS, published 2024).

Sequences and labels used below:
T1: biotinylated-MADCAM-1 antigen (human, UniProt Q13477 19-317, limits assumed, biotinylated (site not stated))
T1 construct: The BLI paragraph says only 'biotinylated-MADCAM-1 antigen'; also called mucosal addressin cell adhesion molecule 1
T1 sequence (looked up): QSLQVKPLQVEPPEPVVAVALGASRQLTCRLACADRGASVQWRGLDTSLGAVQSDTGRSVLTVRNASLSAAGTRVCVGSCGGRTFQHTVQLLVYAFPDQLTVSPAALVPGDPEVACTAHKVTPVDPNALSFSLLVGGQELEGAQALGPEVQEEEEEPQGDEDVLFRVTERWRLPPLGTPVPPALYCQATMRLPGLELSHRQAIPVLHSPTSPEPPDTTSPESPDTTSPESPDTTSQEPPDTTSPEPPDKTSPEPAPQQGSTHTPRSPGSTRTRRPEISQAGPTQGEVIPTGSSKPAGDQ

B1: MAdCAM1 scFv 10.7 (scFv)
scFv: EVQLLESGGGLVQPGGSLRLSCAASGIDFSGYHYICWVRQAPGKGLEWVSCIYTVSSGIWYATWAKGRFTISRDNSKNTLYLQMNSLRAEDTAVYYCARDDADVSGYWFDLWGQGTLVTVSSGGGGSGGGGSGGGGSDIQMTQSPSSLSASVGDRVTITCQASQSISNLLAWYQQKPGKAPKLLIYKASTLASGVPSRFSGSGSGTDFTFTISSLQPEDIATYYCQQGITNNGIDHGFGGGTKVEIK
notes: Humanized rabbit-derived scFv, VH-(G4S)3-VL
B2: MAdCAM1 scFv 10.2 (scFv)
scFv: QVQLVESGGGVVQPGRSLRLSCAASGIDFSGYHYICWVRQAPGKGLEWVACIYTVSSGIWYATWAKGRFTISRDNSTNTLFLQMNSLRAEDTAVYYCARDDADVSGYWFDLWGQGTLVTVSSGGGGSGGGGSGGGGSAIQLTQSPSSLSASVGDRVTITCQASQSISNLLAWYQQKPGKAPKLLIYKASTLASGVPSRFSGSGSGTDFTLTISSLQPEDFATYYCQQGITNNGIDHGFGGGTKVEIK
notes: as for B1
B3: MAdCAM1 scFv 10.3 (scFv)
scFv: B1 scFv with L5V, Q13K, S76A, T79S
notes: as for B1
B4: MAdCAM1 scFv 10.8 (scFv)
scFv: B1 scFv with D138A, M141L, F210L, I220F
notes: as for B1
B5: MAdCAM1 scFv 10.1 (scFv)
scFv: B2 scFv with A138D, L141M, L210F, F220I
notes: as for B1
B6: MAdCAM1 scFv 2.1 (scFv)
scFv: QVQLLESGGGLVKPGGSLRLSCAASGFSFSSGYYMCWIRQAPGKGLEWVSCIYADSSYTYYASWAKGRFTISRDNAKNSLYLQMNSLRAEDTAVYYCARSNGDYFYGMDLWGQGTLVTVSSGGGGSGGGGSGGGGSDIQMTQSPSSLSASVGDRVTITCQASQSINSWLSWYQQKPGKAPKLLIYRASTLASGVPSRFSGSGSGTDFTFTISSLQPEDIATYYCQSNYYSTSTAFGGGTKVEIK
notes: as for B1
B7: MAdCAM1 scFv 2.2 (scFv)
scFv: B6 scFv with D137A, F209L, I219F
notes: as for B1
B8: MAdCAM1 scFv 17.5 (scFv)
scFv: QVQLVESGGGVVQPGRSLRLSCAASGFSFSSTYYMCWVRQAPGKGLEWVACIYTGSGNTDYASWAKGRFTISRDNSTNTLFLQMNSLRAEDTAVYYCARGGIVDSYFTYFDLWGQGTLVTVSSGGGGSGGGGSGGGGSDIQMTQSPSTLSASVGDRVTITCQASESIFSNLAWYQQKPGKAPKLLIYWASTLASGVPSRFSGSGSGTEFTLTISSLQPDDFATYYCQSYVYSSSSSNDFGGGTKVEIK
notes: as for B1

Residue numbers refer to the chain shown, from its start. Numbers in names are those of the source.

This experiment concerns the target T1, biotinylated-MADCAM-1 antigen. The experiment is described as follows: BLI, biotinylated MADCAM-1 on streptavidin biosensors, scFv titrated, global 1:1 fit. As to the method: Binding affinity (KD) of MADCAM-1 scFv antibodies from Table 2 was measured using biolayer interferometry (See also FIG. 6). Streptavidin biosensors were loaded for 5 seconds with 10 Tg/mL biotinylated-MADCAM-1 antigen followed by acquisition of the baseline signal in phosphate buffer saline supplemented with bovine serum albumin and sodium azide. For the association step loaded probes were incubated for 250 seconds with a titration of anti-MADCAM-1 scFv antibodies at concentrations generally between 0 nM and 2 TM. This was followed by a dissociation step in buffer lacking anti-MADCAM-1 scFv for 250 seconds. Experimental data was normalized to a reference probe and high-frequency noise was removed by Savitzky-Golay filtering. On and off-rate constants were determined using a globally fitted 1:1 binding model.
A general note: Biolayer interferometry detects binding as a change in optical thickness at a sensor tip.
The Kd is the free concentration of one partner at which half of the binding sites on the other are occupied at equilibrium, for simple one-to-one binding. Read a low Kd as higher affinity. One may read the koff as the first-order rate constant of dissociation. The low end stands for slow dissociation, the high end for fast dissociation. Usually kon stands for a measure of how fast the partners come together. Read a high kon as faster complex formation. Molecule B1 yielded a Kd of 45.4 nM, a koff of 0.00108 s⁻¹ and an association rate constant (kon) of 23800 M⁻¹ s⁻¹.

Regarding B2, binding was characterised by a dissociation constant (Kd) of 1260 nM, the dissociation rate constant (koff) was found to be 0.00646 s⁻¹ and the kon was found to be 5130 M⁻¹ s⁻¹.

Molecule B3 yielded an equilibrium dissociation constant (Kd) of 98.3 nM, an off-rate constant (koff) of 0.00114 s⁻¹ and a kon of 11600 M⁻¹ s⁻¹.

B4 gave an equilibrium dissociation constant (Kd) of 928 nM, a koff of 0.00259 s⁻¹ and a kon of 2790 M⁻¹ s⁻¹.

In the case of B5, binding was put at a Kd of 102 nM, the off-rate constant (koff) worked out at 0.00125 s⁻¹ and the kon was found to be 12200 M⁻¹ s⁻¹.

In turn, B6 had a dissociation constant Kd of 85 nM, a koff of 0.00602 s⁻¹ and a kon of 70800 M⁻¹ s⁻¹.

In turn, B7 returned an equilibrium dissociation constant (Kd) of 329 nM, a koff of 0.0167 s⁻¹ and a kon of 50800 M⁻¹ s⁻¹.

B8 yielded a Kd of 3.7 nM, a koff of 0.000967 s⁻¹ and a kon of 258000 M⁻¹ s⁻¹.
